Measured values: publication PMC6893399

Columns and labels:
open-field test = conditions: glycan lost; control: wild-type littermates
[1] = maximum speed, NOR test phase; conditions: glycan lost; control: wild-type littermates
[2] = distance travelled, NOR test phase; conditions: glycan lost; control: wild-type littermates
[3] = histology, four points along cortex; conditions: glycan lost; control: wild-type littermates
[4] = total CRMP2 western blot, brain lysate; conditions: glycan lost; control: wild-type mice
[5] = histology, lateral and third ventricles; conditions: glycan lost; control: wild-type littermates
[6] = spontaneous alternation, enclosed plus maze; conditions: glycan lost; control: wild-type littermates
[7] = P509/514-CRMP2 antibody western blot, brain lysate; conditions: glycan lost; control: wild-type mice
[8] = 3F4 (P509/514/518/522) antibody western blot, brain lysate; conditions: glycan lost; control: wild-type mice

## CRMP2: Crmp2S517A
open-field test
  other: anxiety and locomotor activity: no change
[1]
  other: locomotion during NOR test phase, other: speed: decreases, 0.124 ± 0.017 vs 0.145 ± 0.027
[2]
  other: locomotion during NOR test phase, other: distance: decreases, 9.4 ± 2.0 vs 12.8 ± 3.4
[3]
  other: cortical thickness, other: thickness: no change, 1127 ± 93.24 vs 1197 ± 175.4
[4]
  expression_or_secretion: no change
[5]
  other: brain ventricular volume, other: volume: no change, 4.160 ± 1.252 vs 3.592 ± 1.155
[6]
  other: spatial working memory: no change
[7]
  other: CRMP2 phosphorylation at GSK3β sites: no change
[8]
  other: CRMP2 phosphorylation at GSK3β sites: no change
